Results taken from the Human Domainome abundance scans (Beltran et al. 2025).

B1: POU domain, class 3, transcription factor 3, residues 408 to 463; numbered along this chain, P20264 (parent)
chain: KKRTSIEVSVKGALESHFLKCPKPSAQEITNLADSLQLEKEVVRVWFCNRRQKEKR

Variants of: B1
Experiment: abundance fitness (aPCA) (normalised: wild type 0, dead -1); higher = more abundant; growth selection in yeast, the domain comes from the species named
Conditions: Homo sapiens

Abundance fitness of substitutions, site by site:
K40: I 0.048, L -0.103, M -0.336, N -0.118, Q 0.122, R -0.06, S 0.016, T -0.076, W -0.073
E41: A -0.344, C -0.54, D 0.037, F -1.1, G -0.305, H -0.196, M -0.534, N -0.318, P -0.933, Q -0.414, R -0.352, S -0.243, T -0.308, V -0.884, W -0.3, Y -0.625
V42: A 0.003, C -0.172, D -0.014, E 0.032, F -0.056, G -0.339, H -0.34, I -0.107, K -0.333, L -0.091, M 0.084, N -0.586, P -0.556, Q -0.016, R -0.224, S -0.094, W -0.108, Y -0.02
V43: C -0.714, D -0.972, E -0.792, F -1.02, G -0.967, H -0.673, I -0.341, L -0.382, M -0.863, N -0.493, P -0.818, Q -0.88, R -0.931, S -0.926, T -0.595, W -0.994
R44: E 0.213, G -0.165, S -0.55, V -0.224, W -0.377
V45: C -0.177, D 0.098, E 0.034, F -0.211, G -0.058, H 0.103, K -0.024, L -0.042, M -0.06, N -0.206, Q 0.052, R -0.109, S 0.032, T -0.028, W -0.162, Y -0.28
W46: R -0.248, S -0.422
F47: D -0.295, L -0.461, M -0.144, R -1.07, S -0.442
C48: A -0.12, D -0.029, E 0.069, G -0.109, I 0.045, K -0.074, L -0.047, M 0.026, N 0.211, P -0.657, Q 0.131, R 0.035, S 0.045, T 0.032, V 0.068, W -0.113, Y 0.068
N49: A -0.142, C -0.202, D -0.177, E 0.041, G -0.279, H -0.034, I -0.151, K -0.276, L -0.357, M -0.274, P -0.881, Q 0.028, R -0.278, S -0.098, T -0.097, V -0.152, W -0.295, Y -0.381
R50: A -0.416, C -0.75, E -0.538, F -0.875, H -0.668, I -0.809, K -0.364, L -0.739, M -0.497, N -0.919, P -0.853, Q -0.275, T -0.883, V -0.914, W -0.883, Y -0.889
R51: A -0.105, C -0.345, E -0.126, F -0.385, G -0.156, H -0.361, I -0.207, K -0.534, L -0.005, M 0.031, N -0.175, P -0.608, Q -0.164, V -0.222, W 0.018, Y 0.243
Q52: A 0.041, C -0.126, D 0.034, E 0.057, F -0.205, G -0.146, H -0.113, I -0.186, K -0.112, L -0.131, M -0.194, N -0.17, P -0.705
